“And” between values parts separate entries of the source, which are not always exact repeats. Identical values can stand only once. Like-named read-outs stand apart in the source and are kept apart here.

Test [1] concerns the target F-actin assembled from purified rabbit skeletal muscle actin (rabbit) (UniProt P68135). Briefly: co-sedimentation.
Test [2] addresses IQGAP1 (native, from bovine adrenal) (bovine (endogenous in adrenal)). Briefly: AUC.
Test [3] shares this target. Briefly: co-purification with quantitative immunoblot.
Test [4] has the same target. In words: co-purification with quantitative immunoblot. The source holds these as a separate data set.

In turn, “IQGAP1 (native, from bovine adrenal) (natural protein)” showed a percent of IQGAP1 able to bind F-actin (other experiments) in test [1] of 85%. In test [2], this substance came in with a stoichiometry N (subunits per molecule) of 2.
Turning to “Calmodulin co-purifying with native IQGAP1 from bovine adrenal (from UniProt P62157 1-149) (natural protein)”, the stoichiometry N (mol calmodulin per mol 190K) in test [3] was 0.067 and 0.042 and 0.026; in test [4], 0.05.

(Values after PMC2137827.)
